The RNAGym collection of RNA variant scans (doi:10.1073/pnas.2313332121)

B1: TPR t1 (parent)
chain: GACCAAUCUGCCCUCAGAGCUCGAGAACAUCUUCGGAUGCAGAGGAGGCAGGCUUCGGUGGCGCGAUAGCGCCAACGUCCUCAACCUCCAAUGCAUCCCACCACAUGAUGAUGCCUGAAGAGCCUUGGUUUUUUG

Variants of: B1
Assay: polymerase ribozyme fitness, log enrichment relative to wild type (log ratio); higher = more active; in vitro selection for triplet polymerase activity
Procedure, shortened: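 Mutant libraries were PCR-built and transcribed for each subunit of a heterodimeric triplet polymerase ribozyme and selected for one round in triplicate at −7 °C, frozen, before gel excision of extended constructs and streptavidin-bead capture. Input and output libraries were Illumina-sequenced, keeping genotypes with ≥10 input reads and ≥1 read per output. Fitness is a logarithmic ratio of genotype to wild-type enrichment, in base 2, using inverse-variance-weighted replicate averages.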

Variant | polymerase ribozyme fitness (log ratio)
A2U A18G U32C G93U C124G U133G | -2.99
G44A C70A C89A | -4.72
U9G G60U C62U C72G | -2.01
G36C G51A C70A C101U | -7.34
A18C G120A | -1.48
C72G C98U A105C | -4.92
G60A G69U A95U U126A | -2.8
C49U G63A | -1.67
G42A G57U G122U C123U | -2.35
G69A U133A | -3.31
G113U C115A | -4.42
C98U U116A | -4.71
C15A G69U G77U G122A C123A | -1.41
U21A C86G | -0.987
C4G G39A C40U G93A C102A | -3.57
G10A G45U | -1.26
C13G G48C G63U A105C C124A | -4.22
C80G U87G C88A U112A | -4.77
U106A G110U | -0.605
C70G U125G | -4.85
G45C A46U | -2.34
A29U A43U | -3.3
A6U U9C G47A G69A | -2.93
G48A C76U C85G C89A U96C | -5.66

Variant | polymerase ribozyme fitness (log ratio)
G60A G128A | -2.27
G39U G47U | -2.97
G48U U54G | -0.42
G17U C72U U130A | -2.54
G45C U132C | -1.51
G52A G63U | -2.08
C15G C22A G52C A119G | -5.02
U7A U21C | 0.0698
C80A U130C | -2.51
U116A A121U | -0.72
A29G C86A U112A C123G | 0.207
G93U C94U | -1.22
G47A G69U G77C C99U C114G | -3.2
C13U C34G U133A | -4.86
C13G C28G U96A | -4.5
A24G G128A | -3.49
C53A C72G | 0.124
C53A A84U G117U C123G | -0.712
G60C C76U | -3.93
C49A C123U | 1.14
C11A A37C A50U | -2.75
C56G G110U | -1.13
G127C G128U U131C | -1.37
C28U U55A G71C | -2.75

Variant | polymerase ribozyme fitness (log ratio)
G10C A18U G93A U130C | -3.83
G10C C11A | -1.06
C89U G128C | -3.21
C11A U133A | -2.64
C8G G63C | -1.11
A37U G45A C72G | -1.92
G35U A121G | -3.56
U81C | -0.208
C8G A29U U55G C56A C94U C124A | -1.05
C11U C62G | -1.21
C11G C12G C73U C123G U125A | -2.92
C56U U78C | -0.427
G60U C62G U92C | -2.78
C53A G60A A100U G120C C123G | -1.07
A46C C89A | -5.69
G113C C124U | -2.58
C34A C56A C104U | -2.11
G63U A90U G113C | -3.41
C13U G17U G63U U78C | -3.99
A29C G61U A90G U116G | -5.84
C11U C123U | 1.77
C114G G117U | -3.8
A27U G60U G128A | -4.65
A27U U54C U109A G117A A118U U129G | -5.85

Variant | polymerase ribozyme fitness (log ratio)
C15G A27G | -4.15
C56G A74U U81A U87A | -4.29
C53G C114A U125C | -2.07
C12U A83C G93A | -0.192
G17C A121G U133A | -1.73
G61C G63U | -5.51
A75U C104U U106A | -0.439
C40A C86U G110U U112C | -3.84
G60A U112A | 1.13
C12A U130C | -1.06
U33A C88G | -4.9
A46G G61A | 0.179
A46U G57U U132A | -0.968
A18G C56G C114A | -4.99
G117C G135U | -3.37
G48C C72G U78G U92A C124G | -2.22
G19U C56A | -3.03
C4A C53G G77A C80A | -5.1
C72G C97U G122A | -1.57
U9A C72A A83U U129A | -0.91
C56G U109A G113C | -5.42
C11U C56U G128C | -3.11
C15U C104U G117U | -0.366
G36C C64U G93A A100C | -3.67

Variant | polymerase ribozyme fitness (log ratio)
A46G G61A C80U C94U | -2.56
A100U C123G | -1.75
G45U C82A C102U G122A | -3.36
C4U C8A C28U U59A | -2.29
C76U | -0.164
A100U U133A | -0.657
U7G C12U C15A C22G C62U C80U C86U U96C G113C | -6.05
C12G C28U C72U C123U U125G | -0.502
U21G C62G C101U | -5
G36U C70G | -4.21
C4G G63U | -1.88
G48U A50U U78C A90U C123A | -2.26
G10C G19C A43G C72U U112C C123A | -1.54
G51A C64U A105G C115G | -8.49
A5U U9C G45A | -0.0819
C53A U55A C88U C89U | -0.643
A43U C53G | -1.38
A18G C123U | -1.44
C76U U92G | -3.28
G52U G58C | -0.674
A16U C22U C62U U78C U92G G120A C123A | -6.53
A18C G61A | -2.53
A46U A84C | -1.04
A27U C86G | -3.66

Variant | polymerase ribozyme fitness (log ratio)
G47C C49U C62U | -2.46
G45C A119G U131G U132A | 0.0169
A6G G10A C20A U112G | -1.35
C40G A50U | -0.606
C34G C73U | -5.17
C79G C82G U92A A121G | -5.59
A16G G61C A84C G117A A119G | -2.13
C15G C73U A75G G107U U109A C124G | -5.07
A26G G69A A91U U133G | -6.73
A91U C102U | -4.75
A46C G48A G51A U87G C123A | -1.77
U55A C101U A121U | 1.89
G42U U78A C85U | -2.63
G113A G122C | -3.36
C40U U116G | -2.61
C79G C115G | -4.07
A105U G110U | -6.12
G42A G45C G61A A105C C115U | -6.55
G17C G19U G63U A91C C124A | -5.7
C3G C124A | -0.505
U9G C40U C114G G122A C123G | -5.42
C73A G93C | -0.962
A29C G52C C114U | -4.25
A37U C123U | 0.6

Variant | polymerase ribozyme fitness (log ratio)
A5G C53U G71A G113A | -2.7
G47U G127C U130C | -2.06
A24G A46G G57U A100C | -4
C70A C88A C89U | -5.58
U59C A83C C101G C115U U116A | -5.84
U54A C56U G93A | 0.304
C53U C72A A91G U132A | 0.186
C64U G120A | 0.482
A103U C124G U131C | -2.6
C79U C98A | -4.92
C4U A37U C40U A83G | -2.17
C13U G35C G48C C73A A74G C104U | -4.6
C40U G60U U131G | -0.956
G47U G48A G63C A119G U130C | -1
U14A A50G | -2.52
C56U G63C G110A | -4.56
G52A G60A | -0.303
A26U A119G | -2.12
C13U A29U U78A C80U U96G U116G G120U G122A | -5.15
U96C C102U G113C | -4.89
A74C G110C | -4.36
C56G A66U A74C G122A | -6.51
C11G C40G G42U C73G U87A | -4.66
